Experimental data reported in article PMC3575409, “Identification of a Novel Protein-Protein Interaction Motif Mediating Interaction of GPCR-Associated Sorting Proteins with G Protein-Coupled Receptors” (PLoS ONE, 2013).

Target: full-length ADRB2 (β2 adrenergic receptor)
Assay: SPR saturation binding, ADRB2
Set-up: species or system human
Method: The human ADRB2 and CNR2 receptors were produced using the P. pastoris expression system as previously described, [16]. After methanol-induced receptor expression, cells were washed with PBS pH 7.0 and resuspended in ice-cold buffer A (50 mM Tris-HCl pH 7.4, 500 mM NaCl, 10% glycerol, 5 mM EDTA, 1 mM PMSF, 2 mM DDT). Cells were then lysed with two cycles of 20 s shaking and 20 s cooling on ice using 0.5 mm glass beads in a FastPrep 24 device. Unbroken cells and cell debris were removed by centrifugation (3000 g, 5 min, 4°C) and the membrane fraction from the supernatant was pelleted by ultracentrifugation (100,000 g, 45 min, 4°C). […] Finally membranes were resuspended in buffer B and quantified with the bicinchoninic acid (BCA) method (Pierce).
Approximately 150 mg membrane proteins were extracted by 5 min incubation at room temperature in buffer C (50 mM Tris-HCl pH 7.4, 500 mM NaCl, 10% glycerol, 1 mM PMSF, 2 mM DTT, 50 mM imidazole, 1% (w/v) DDM, 0.1% (w/v) CHS). […] Imidazole was removed from the eluted fraction using a HiTrap 5 ml desalting column (GE Healthcare), purified proteins were quantified using the BCA assay (Pierce) and receptor integrity was analyzed by SDS-PAGE. […]

B1: central domain of GASP-1: central portion of GASP-1 (AA 380 to 1073) that contains 19 GASP motif (protein)
chain: MTKEEAKTKARARAKQEARSEEEALIGTWFWATDESSMADEASIESSLQVEDESIIGSWFWTEEEASMGTGASSKSRPRTDGERIGDSLFGAREKTSMKTGAEATSESILAADDEQVIIGSWFWAGEEVNQEAEEETIFGSWFWVIDAASVESGVGVSCESRTRSEEEEVIGPWFWSGEQVDIEAGIGEEARPGAEEETIFGSWFWAENQTYMDCRAETSCDTMQGAEEEEPIIGSWFWTRVEACVEGDVNSKSSLEDKEEAMIPCFGAKEEVSMKHGTGVRCRFMAGAEETNNKSCFWAEKEPCMYPAGGGSWKSRPEEEEDIVNSWFWSRKYTKPEAIIGSWLWATEESNIDGTGEKAKLLTEEETIINSWFWKEDEAISEATDREESRPEAEEGDIIGSWFWAGEEDRLEPAAETREEDRLAAEKEGIVGSWFGAREETIRREAGSCSKSSPKAEEEEVIIGSWFWEEEASPEAVAGVGFESKPGTEEEEITVGSWFWPEEEASIQAGSQAVEEMESETEEETIFGSWFWDGKEVSEEAGPCCVSKPEDDEEMIVESWFWSRDKAIKETGTVATCESKPENEEGAIVGSWFEAEDEVDNRTDNGSNCGSRTLADEDEAIVGSWFWAGDEAHFESNPSPVFRAICRSTCSVEQEPDPSRRPQSWEEVTVQFKPGPWGRVGFPSISPFRFPKE
modifications: left off: GST, N-terminal, kept
notes: central portion of GASP-1 (AA 380 to 1073) that contains 19 GASP motif
  kinetics of the interaction: very stable and had a slow association rate
